From a protein production outcome set (Wang et al. 2014)

Test: label from the status in PepcDB records

Sequence	protein production
MFRKVLFPTDFSEGAYRAVEVFEKRNKMEVGEVILLHVIDEGTLEELMDGYSFFYDNAEIELKDIKEKLKEEASRKLQEKAEEVKRAFRAKNVRTIIRFGIPWDEIVKVAEEENVSLIILPSRGKLSLSHEFLGSTVMRVLRKTKKPVLIIKEVDENELAKTKGTSG	not failed
MFRLEDFNFHNKTVFLRVDLNSPMKDGKIISDARFKAVLPTIRYLIESGAKVVIGTHQGKPYSEDYTTTEEHARVLSELLDQHVEYIEDIFGRYAREKIKELKSGEVAILENLRFSAEEVKNKPIEECEKTFLVKKLSKVIDYVVNDAFATAHRSQPSLVGFARIKPMIMGFLMEKEIEALMRAYYSKDSPKIYVLGGAKVEDSLKVVENVLRRERADLVLTGGLVANVFTLAKGFDLGRKNVEFMKKKGLLDYVKHAEEILDEFYPYIRTPVDFAVDYKGERVEIDLLSENRGLLHQYQIMDIGKRTAEKYREILMKARIIVANGPMGVFEREEFAIGTVEVFKAIADSPAFSVLGGGHSIASIQKYGITGITHISTGGGAMLSFFAGEELPVLRALQISYEKFKEVVK	not failed
MFRSIKVASIVQIVFAVCAVLLALTVFEYKKALNTFTNDLNLTVSNTLTRLQVNLPKPLWDFDLETVKSAISAELKTPEISSIKITDTTGKAILYLTLDQATDDKGLRKTIAVENEGALAELASVSGELEFVEYGKKNPLGSIEIRYSDEFMHQQLAEYVSFNLLKVLILAILIPCMLFIILNFSVLKPLNELGDKTRTTIQWGCRPHPSVTRS	failed
MFRTSGTKTIVFHCHPRYTMIVCVMEEFCRKKVDGNENNSYLTVCNRKLDQERKEIVMNEKQRLEQTGQIQTASHPADRKSDLERLKAKTTKDYEKYFTSVFLPPNLKEAKKRGKEEVQYVKDFTIPDEFRGMGRGRKFYIRTYGCQMNEHDTEVMAGIFMALGYEPTDRPEDANVILLNTCAIRENAENKVFGELGYLKPLKTTNPDLLLGVCGCMSQEEAVVNKILKQYQYVDLIFGTHNIHRLPYILHEAYMSKEMVVEVWSKEGDVVENLPKVRKGNIKAWVNIMYGCDKFCTYCIVPYTRGKERSRRPEDIIQEVRQLAAQGYKEITLLGQNVNAYGKDFNDIQYGLGDLMDELRKIDIARIRFTTSHPRDFDDRLIEVLAKRGNLVEHIHLPVQSGSTEILKMMGRKYTREEYLELVRKIKAAIPDVALTTDIIVGFPNETDEQFEETLSLYREVEFDSAYTFIYSPREGTPAAKMNDNVPMEVKKERLQRLNALVQEIAAKKMKQYEGQVVEVLVEGESKTNPDVLAGYTRKNKLVHFVGPKSLIGQLVNVRITQAKTWTLTGELANEAIEVN	failed
MFSLKMRASSNGNHVSGAERLVKEEQIEEISSELIKRAMNHENGVPDFINLKVEKVTENINYIEHLKIKTINSNSKETSREFAINILKKELENYFLKNGKDTKKIDELIDSAFKIIDAGNMRGAAILDLDGNRLEKSSDRGIRVRNIDTAEELSKKILKDGSLTERTVDAIAIATKVVNCDIIAELCTSDNFSYTTGYVATKDGYFRILNLKDSGQVGGRVFFAESSDIDELYDKLENMPVIVY	failed
MFSSSYSNLPPLPHRLFLLLTVIWAGSLWTIGYLVAPTLFSVLPSRETAGMIAGHLFRYEAILGMTVGVLQLVLCNVLIRRGAERYRSLRWIVLTMLVCVLAGYFGVQPFMEGLKVKAQALNLGVSESPYKAEFGMLHGVSSVIYLVQSVLALVLVWRASAPR	failed
MFTFISIMAVGVLIGYPLRHKSQVRKITPLIHIVVCLLLFLLGLSIGLNRLIIDNLGYFCGQAAVISSLSILGSMMASLAVYHIFF	failed
MFTMVQKLWLTVVCAVFVTVSFLYFVSLYSYEKLYVDNLKDSLVMEGKRLSAQYDKREGISIFEEKVRAFDQISSSDVLFVSNPRDLSACLPFDVHHHSLISEGDRQALLDGKTVTKIGYEEHFDRNIMGVVIPVLENKKLVGIVYSYIPLKSIKDLIYDMGLILAPLALAITLLTIWIGRKIIIAITKPLSQMERVANHLATGDFSERITISSEDEIGRLGKAFNKMANSLETEDVKRKEFLANVSHELRTPLSYIKGYSEAILDGVAKGPQQEKVTQLIHKEADRMQRLVHDLLDLAQLEGEHFPLKKQPIVFSQLIEDVLDTYEIKFIEKKIRISTNLNPEIIVMIDEDRMQQVLHNVLDNAIRYTNQNGDIIVTLRQIDDYCELNIKDTGIGIDTEHLENLGERFYRVDKARSRQHGGTGLGLAIVRQIVHIHDGQWRIESEKGNGTTVSIKLKVQDEESMF	failed
MFTPGNVLSWATFFPVIGSALIVVLLAAKFFLRLDKKLVDDGSRWIALVTSALSFAAAIAAWRMYDPSATGVQLVQHFTWIRAFNIEFYFGVDGISISMVLLSGLISFIATIASMPWWSGKKDAEMAGMVDDGHEDPHHPKHFSVRMVPGYMAMLLLLQTGMMGTFVALDMFLFYVFWEIMLLPMYFLIGIWGGPRKEYAAIKFFLYTLAGSVLMLLAIIGIYYNSAPAQLADGSWSSGHTFNLIELAKQGAAGQFRNAAPILGFSFAKIVFIGLFIGFAIKIPMFPFHTWLPDAHVEAPTPISVILAGVLLKMGIYGILRFNYGILPDATAWAAGAIAVFGVINIIYAAFVCLAQKDLKKLIAYSSVSHMGFSLLGMAAMTPQGISGAVLNLFTHGIISPMLFLIVGVIYDRAHHREIEKFGGLAQELPEYSAIMGLAFFASLGLPGLAGFISEFTVFSGAFPVFTTYTIISATSVVLTAAYYLWAIHRMFLGKLNPVYKGYPDLNWRERMSLYPLAVICIYLGFYPQAILGVINPALHALIQNIKPL	failed
MFTYLLITIFGIGLLIWAFWYDKNMFKPEKKKNGKMTKPLHTRWYFWVLVVFSIVGGIGNMLGLGADDDDSDNNSAQTVQTSKKAKQSKAENHSKAKKSGTKKSKEISDEEKEAAALLLLRKNFKGKAKVWYDSDNKAFMIQPTGTEFKEELLDIIATQDTSDWKDLTDSMDSLSRSLYKNLQLADFVSIVNPDNPDKVLYSSLNGHSEYDFLKDDE	failed
MFVGVVVIVAYGNLGQRLAYTVRSDEVVATAGFVLVGFVAGVAGQVLGTRIQAAVGEGAAVVDLPLVLFLAASGAFVAALLRSVLFERDDPLVMLTVGLLLWLFFELDPSVTARRVVIALAVTVLLGYLSYALDTASLPGMLTGVLLSFLTIVLGGFGWFAMLITFFGLGGLSTKYRYDEKLDRGIAEENEGARGSGNVLANSIVALFAVVAAAASPSHIAVDPLLFFYAFAGAVAAAMTDTFSSEFGGLYDNPRLITTLRPVEPGTDGGVTWQGVAAGAAGAGIIAGIAALTQDISTVGSGVILLCGLVGMTVDSLLGATVEGSVVGNQGVNMLATLAAALTGAGVVLTAGLL	failed
MFVHTKTKKKRKWQRKVFLLLLLFLLPIVSVLAFIVLFIGGGTAESHDVEATTGGVKLSAKQFADKTKLGISEEEAKNALAFADRLMSRHHFTAQATAGVLAVGFRESGFDVKAVNNSGGVAGFFQWSGWGSSVNGDRWKVASKRELTLEVEVDLMSTELDGRYADVVKKVGSATDEKQAAKDWSQYYEGVAVSDGQTKADKIESWATTICEALKSGGTNYAKVNNTGTSSTAIPQGWENISAFDGHAYEGSENYPQGQCTWYVYNRAKQLGVSFSPYMGNGGQWYQVQGYHSSHTPKAHTALSFVNGQAGSDPTYGHVAFVEAVKDDGSILISEMNVYGQPAMTVAYRTFDAETAKQFWYVEGK	failed
MFWIVLIVILLLALAGLFFVRAQSEREWMREVSAWQEKKGEKQAELPEIKDGMPDFPEFSLMLFHAVKTAVYWLFVGVVRFCRNYLAHESEPDRPVPPASANRADVPTASDGYSDSGNGTEEAETEAAEAAEEEAADTEDIATAVIDNRRIPFDRSIAEGLMQSESKTSPVRPVFKEITLEEATRALSSAALRETKKRYIDAFEKNGTAVPKVRVSDTPMEGLQIIGLDDPVLQRTYSRMFDADKEAFSESADYGFEPYFEKQHPSAFSAVKAENARNAPFRRHAGQEKGQAEAKSPDVSQGQSVSDGTAVRDARRRVSVNLKEPNKATVSAEARISRLIPESRTVVGKRDVEMPSETENVFTETVSSVGYGGPVYDEAADIHIEEPAAPDAWVVEPPEVPEVAVPEIDILPPPPVSEIYNRTYEPPAGFEQAQRSRIAETDHLAADVLNGGWQEETAAIADDGSEGAAERSSGQYLSETEAFGHDSQAVCPFEDVPSERPSCRVSDTEADEGAFQSEETGAVSEHLPTTDLLLPPLFNPEATQTEEELLENSITIEEKLAEFKVKVKVVDSYSGPVITRYEIEPDVGVRGNSVLNLEKDLARSLGVASIRVVETIPGKTCMGLELPNPKRQMIRLSEIFNSPEFAESKSKLTLALGQDITGQPVVTDLGKAPHLLVAGTTGSGKSVGVNAMILSMLFKAAPEDVRMIMIDPKMLELSIYEGITHLLAPVVTDMKLAANALNWCVNEMEKRYRLMSFMGVRNLAGFNQKIAEAAARGEKIGNPFSLTPDDPEPLEKLPFIVVVVDEFADLMMTAGKKIEELIARLAQKARAAGIHLILATQRPSVDVITGLIKANIPTRIAFQVSSKIDSRTILDQMGAENLLGQGDMLFLPPGTAYPQRVHGAFASDEEVHRVVEYLKQFGEPDYVDDILSGGGSEELPGIGRSGDGETDPMYDEAVSVVLKTRKASISGVQRALRIGYNRAARLIDQMEAEGIVSAPEHNGNRTILVPLDNA	failed
MFYHDFRTMLIRLRAQFIKELLCILRDPRNRVVVFVPPLMQLLIFSYAATMEVRNLDIAVYNQDTGRAAQELVWHLEAARFIAQVHHVHSNTALREQLVQGKVIAAIAIPADFSRTVAVSGSGHAQVLVDGRRSNSGQIVVGYLSSIARDIRFTADTAPIPETSVTVRHWFNPNLVYLWFMVPGLTGTLAFFSALMITALSIARERELGTFDQLLVSPASTLEIILSKSLPALVISSLLALLMITLAIWFFRIPFTGSFGLLLIGLVLFILSAVGIGLVISAISMTQQQAILGGFVIGVPTVLISGFATPVENMPLLLQWLAQAIPLTHFLIIIEGCFLKALPPRDVLANLWPLAVIAFTMLPIAMIFARSRLQ	failed
MGAAGGGWRMSERHLRRSTHKVGDVTLGPVHRLSCHCGAVQIDLDLPHGLLDPRRCDCSMCRRRGAIVASVSLDGLHVLQGEDVLRLYQFNTQTAAHYFCGVCGIYTHHRRRSNPNEYGYNVGCLEGVNPYALNIAVPVEDGVNHPADRVTAAS	failed
MGACVCRMNPDNETMSVSSASISRPASAGIAMGAARKNRPLCHETIRWRSDVPLTEGQLRSKRDEFWDTAPAFDGRKEIWDALRAATTAAEGLDFQMAQAILDGANVSVPNGYLTECYDELGTQYKVPIYCLSYPINIVKEENGRDSPAEYSEPVDGGTDIFLKLRISSTMTDVKLPVYSKDTVGQCKKKLQAAEGVDACCQRWFYSGKLLGDKVPIDECSIHQGYVVQVIVNTEHYNHDNSTSTAHAS	failed
MGAIQFQTAPKLPVTVLLAAKNEAVNLPRCLAALGPAERVIVLDSHSTDATAEIARQHGAEVAQFDYRGGYPKKRQWALDTIPFGTPWILLLDADEVVPEDLWKEIGNVTRQPDADAYLITKGFHFLGRKFKHGGFSHSAVLLFKTGMARFEKLFDDDLNGLDMEIHERVVVDGRIGKLKTPLVHEDFKGLEAYITRHNKYSTWEAKVRHHYLTTGRYGEQTIKPRLFGNSQERRRFLKALIIRLPFEPQIWFIYHYLLRLGFLEGRPGLIASQIRAAYIAQARAKIYELRLNTPSRLEHHHHHH	failed
